Data on six sequences can be found in the supplement of paper PMC5998384.

In data set [1] the test system is HeLa Kyoto. As to the kind of experiment: thermal stability score vs G1/S (z-score of summed log2 fold changes over temperatures); higher = more thermally stable than in G1/S.
For data set [2], the system named is HeLa Kyoto. The data set is described as follows: solubility in G1/S (NP-40 vs SDS abundance) (log2 ratio); higher = more soluble. As to conditions: cell cycle stage: G1/S.
The subject of data set [3] is HeLa Kyoto. As to the kind of experiment: solubility change mitosis vs G1/S (difference of NP-40 vs SDS log2 ratios) (log2 ratio difference); higher = more soluble in mitosis.
The subject of data set [4] is HeLa Kyoto. The data set is described as follows: melting temperature (median over replicates), in situ; higher = more thermally stable.
[5] abbreviates: cell cycle stage: early G1 (4.5 h after nocodazole release).
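For melting temperature (median over replicates), in situ in this document: HeLa Kyoto cells synchronized by double thymidine or nocodazole block, proteins quantified by TMT10plex mass spectrometry, three independent biological replicates.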
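For solubility change mitosis vs G1/S (difference of NP-40 vs SDS log2 ratios) in this document: synchronized HeLa Kyoto cells (double thymidine block for G1/S, nocodazole release for mitosis), protein amounts in NP-40 versus SDS lysates quantified by mass spectrometry, three biological replicates.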
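For solubility in G1/S (NP-40 vs SDS abundance) in this document: HeLa Kyoto cells arrested at G1/S by double thymidine block, proteins quantified by TMT10plex mass spectrometry in mild NP-40 versus SDS extracts, three biological replicates.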
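For thermal stability score vs G1/S (z-score of summed log2 fold changes over temperatures) in this document: synchronized HeLa Kyoto cells, proteins quantified by TMT10plex mass spectrometry, three biological replicates, mitosis taken 0.5 h after nocodazole release, G1/S directly after double thymidine block.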

For the sequence “MAKISSPTETERCIESLIAVFQKYAGKDGYNYTLSKTEFLSFMNTELAAFTKNQKDPGVLDRMMKKLDTNSDGQLDFSEFLNLIGGLAMACHDSFLKAVPSQKRT [S100A11]”, the thermal stability score is -4.03 in the data set on HeLa Kyoto [1] (setting [5]) and -4.13 in the data set with HeLa Kyoto [1] (cell cycle stage: mitosis). Also, in the data set on HeLa Kyoto [2], the “solubility in G1/S (log2)” value is -1.04. Moreover, the “solubility change mitosis (log2)” value in the data set with HeLa Kyoto [3] amounted to 0.343. Besides, the melting temperature in the data set with HeLa Kyoto [4] (cell cycle stage: G1/S) stood at 53.8 °C; in the data set with HeLa Kyoto [4] (cell cycle stage: mitosis), 52.6 °C.
Regarding “MAKLLSCVLGPRLYKIYRERDSERAPASVPETPTAVTAPHSSSWDTYYQPRALEKHADSILALASVFWSISYYSSPFAFFYLYRKGYLSLSKVVPFSHYAGTLLLLLAGVACLRGIGRWTNPQYRQFITILEATHRNQSSENKRQLANYNFDFRSWPVDFHWEEPSSRKESRGGPSRRGVALLRPEPLHRGTADTLLNRVKKLPCQITSYLVAHTLGRRMLYPGSVYLLQKALMPVLLQGQARLVEECNGRRAKLLACDGNEIDTMFVDRRGTAEPQGQKLVICCEGNAGFYEVGCVSTPLEAGYSVLGWNHPGFAGSTGVPFPQNEANAMDVVVQFAIHRLGFQPQDIIIYAWSIGGFTATWAAMSYPDVSAMILDASFDDLVPLALKVMPDSWRGLVTRTVRQHLNLNNAEQLCRYQGPVLLIRRTKDEIITTTVPEDIMSNRGNDLLLKLLQHRYPRVMAEEGLRVVRQWLEASSQLEEASIYSRWEVEEDWCLSVLRSYQAEHGPDFPWSVGEDMSADGRRQLALFLARKHLHNFEATHCTPLPAQNFQMPWHL [ABHD16A]”, the thermal stability score with HeLa Kyoto [1] (setting [5]) is 0.0741; with HeLa Kyoto [1] (cell cycle stage: mitosis), -0.0149. The “solubility in G1/S (log2)” value in the data set on HeLa Kyoto [2] is -0.125. The “solubility change mitosis (log2)” value in the data set with HeLa Kyoto [3] is -0.122. In addition, the melting temperature with HeLa Kyoto [4] (cell cycle stage: G1/S) came to 51 °C; in the data set on HeLa Kyoto [4] (cell cycle stage: mitosis) it was 51.3 °C.
“MAKRNAEKELTDRNWDQEDEAEEVGTFSMASEEVLKNRAIKKAKRRNVGFESDTGGAFKGFKGLVVPSGGGRFSGFGSGAGGKPLEGLSNGNNITSAPPFASAKAAADPKVAFGSLAANGPTTLVDKVSNPKTNGDSQQPSSSGLASSKACVGNAYHKQLAALNCSVRDWIVKHVNTNPLCDLTPIFKDYEKYLANIEQQHGNSGRNSESESNKVAAETQSPSLFGSTKLQQESTFLFHGNKTEDTPDKKMEVASEKKTDPSSLGATSASFNFGKKVDSSVLGSLSSVPLTGFSFSPGNSSLFGKDTTQSKPVSSPFPTKPLEGQAEGDSGECKGGDEEENDEPPKVVVTEVKEEDAFYSKKCKLFYKKDNEFKEKGIGTLHLKPTANQKTQLLVRADTNLGNILLNVLIPPNMPCTRTGKNNVLIVCVPNPPIDEKNATMPVTMLIRVKTSEDADELHKILLEKKDA [NUP50]”: the thermal stability score in the data set on HeLa Kyoto [1] (setting [5]) was -1.56; in the data set on HeLa Kyoto [1] (cell cycle stage: mitosis) it was -1.75. Further, the “solubility in G1/S (log2)” value in the data set with HeLa Kyoto [2] was 0.204. Further, the “solubility change mitosis (log2)” value with HeLa Kyoto [3] was determined as 0.0955. The melting temperature was 51.9 °C in the data set on HeLa Kyoto [4] (cell cycle stage: G1/S) and 52.8 °C with HeLa Kyoto [4] (cell cycle stage: mitosis).
Take “MAKTYDYLFKLLLIGDSGVGKTCLLFRFSEDAFNTTFISTIGIDFKIRTIELDGKKIKLQIWDTAGQERFRTITTAYYRGAMGIMLVYDITNEKSFDNIKNWIRNIEEHASSDVERMILGNKCDMNDKRQVSKERGEKLAIDYGIKFLETSAKSSANVEEAFFTLARDIMTKLNRKMNDSNSAGAGGPVKITENRSKKTSFFRCSLL [RAB8B]”: the thermal stability score with HeLa Kyoto [1] (setting [5]) came to 1.55; in the data set with HeLa Kyoto [1] (cell cycle stage: mitosis) it was 0.563. Further, the “solubility in G1/S (log2)” value with HeLa Kyoto [2] is -0.16. Moreover, the “solubility change mitosis (log2)” value with HeLa Kyoto [3] is -0.0727. In addition, the melting temperature in the data set with HeLa Kyoto [4] (cell cycle stage: G1/S) worked out at 55.9 °C; in the data set on HeLa Kyoto [4] (cell cycle stage: mitosis), 54 °C.
Take “MALAARLLPQFLHSRSLPCGAVRLRTPAVAEVRLPSATLCYFCRCRLGLGAALFPRSARALAASALPAQGSRWPVLSSPGLPAAFASFPACPQRSYSTEEKPQQHQKTKMIVLGFSNPINWVRTRIKAFLIWAYFDKEFSITEFSEGAKQAFAHVSKLLSQCKFDLLEELVAKEVLHALKEKVTSLPDNHKNALAANIDEIVFTSTGDISIYYDEKGRKFVNILMCFWYLTSANIPSETLRGASVFQVKLGNQNVETKQLLSASYEFQREFTQGVKPDWTIARIEHSKLLE [C2ORF47]”: the values for the thermal stability score with HeLa Kyoto [1] (setting [5]) and in the data set on HeLa Kyoto [1] (cell cycle stage: mitosis) were 0.0315 and 0.76, respectively. Further, the “solubility in G1/S (log2)” value in the data set on HeLa Kyoto [2] is -0.257. In addition, the “solubility change mitosis (log2)” value in the data set on HeLa Kyoto [3] was -0.117. Besides, the results for the melting temperature in the data set with HeLa Kyoto [4] (cell cycle stage: G1/S) and in the data set with HeLa Kyoto [4] (cell cycle stage: mitosis) were 53.7 °C and 53.3 °C, respectively.
Regarding “MALDGIRMPDGCYADGTWELSVHVTDLNRDVTLRVTGEVHIGGVMLKLVEKLDVKKDWSDHALWWEKKRTWLLKTHWTLDKYGIQADAKLQFTPQHKLLRLQLPNMKYVKVKVNFSDRVFKAVSDICKTFNIRHPEELSLLKKPRDPTKKKKKKLDDQSEDEALELEGPLITPGSGSIYSSPGLYSKTMTPTYDAHDGSPLSPTSAWFGDSALSEGNPGILAVSQPITSPEILAKMFKPQALLDKAKINQGWLDSSRSLMEQDVKENEALLLRFKYYSFFDLNPKYDAIRINQLYEQAKWAILLEEIECTEEEMMMFAALQYHINKLSIMTSENHLNNSDKEVDEVDAALSDLEITLEGGKTSTILGDITSIPELADYIKVFKPKKLTLKGYKQYWCTFKDTSISCYKSKEESSGTPAHQMNLRGCEVTPDVNISGQKFNIKLLIPVAEGMNEIWLRCDNEKQYAHWMAACRLASKGKTMADSSYNLEVQNILSFLKMQHLNPDPQLIPEQITTDITPECLVSPRYLKKYKNKQITARILEAHQNVAQMSLIEAKMRFIQAWQSLPEFGITHFIARFQGGKKEELIGIAYNRLIRMDASTGDAIKTWRFSNMKQWNVNWEIKMVTVEFADEVRLSFICTEVDCKVVHEFIGGYIFLSTRAKDQNESLDEEMFYKLTSGWV [FERMT2]”, the values for the thermal stability score in the data set with HeLa Kyoto [1] (setting [5]) and with HeLa Kyoto [1] (cell cycle stage: mitosis) were -0.389 and 0.267, respectively. Besides, the “solubility in G1/S (log2)” value in the data set with HeLa Kyoto [2] was -0.166. In addition, the “solubility change mitosis (log2)” value in the data set with HeLa Kyoto [3] was -0.119. For the same sequence, the melting temperature amounted to 54.6 °C in the data set on HeLa Kyoto [4] (cell cycle stage: G1/S) and 55.2 °C in the data set on HeLa Kyoto [4] (cell cycle stage: mitosis).
